The target of one series is PPARγ;RXRα (Mus musculus?;Mus musculus?) (UniProt P37238+P28700). Nature of the series: MITOMI. The following applies: KDoD from cooperative model; On-chip MITOMI, 1 h equilibration; buffer, salt, pH and temperature not in the material (as ref. 23).
On to “AAACTAGGTCAAAGGTCAAA (double strand) [PPRE]”, for which the Ka is 1.46e+22 M-2.

Another series has as its target T1, RXRα (UniProt P28700).
T1 sequence: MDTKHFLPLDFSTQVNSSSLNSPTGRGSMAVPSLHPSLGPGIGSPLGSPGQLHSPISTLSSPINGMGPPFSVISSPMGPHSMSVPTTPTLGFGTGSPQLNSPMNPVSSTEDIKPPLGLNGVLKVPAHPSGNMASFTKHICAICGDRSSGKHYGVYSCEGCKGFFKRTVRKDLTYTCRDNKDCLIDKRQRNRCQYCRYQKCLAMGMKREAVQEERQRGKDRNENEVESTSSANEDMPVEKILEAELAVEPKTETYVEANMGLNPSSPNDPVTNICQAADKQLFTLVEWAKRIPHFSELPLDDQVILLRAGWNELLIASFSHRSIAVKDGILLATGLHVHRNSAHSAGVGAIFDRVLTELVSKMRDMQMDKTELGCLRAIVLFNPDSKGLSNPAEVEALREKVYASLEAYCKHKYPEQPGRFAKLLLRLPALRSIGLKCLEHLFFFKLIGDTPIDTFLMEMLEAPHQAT
The series can be described thus: MITOMI. Particulars: On-chip MITOMI, 1 h equilibration; buffer, salt, pH and temperature not in the material (as ref. 23).
For “AAACTAGTTCAAAGGTCAAA (double strand) [PPRE G8T]”, the Ka is 2.54e+07 M⁻¹.
Still for that read-out and setting: then “AAACCAGGTCAAAGGTCAAA (double strand) [PPRE T5C]”, with 3.82e+08 M⁻¹; and “AAACTAGGTCACAGGTCAAA (double strand) [PPRE A12C]”, with 7.95e+06 M⁻¹.
Same read-out and setting: then “AAACTAGGTCAAAGGTCAAA (double strand) [PPRE]”, with 1.98e+08 M⁻¹.
“AAATTAGGTCAAAGGTCAAA (double strand) [PPRE C4T]”: the Ka is 2.59e+08 M⁻¹.
For “AAACTTGGTCAAAGGTCAAA (double strand) [PPRE A6T]”, the Ka was found to be 4.68e+06 M⁻¹.
In the case of “AAAATAGGTCAAAGGTCAAA (double strand) [PPRE C4A]”, the Ka was 1.64e+08 M⁻¹.
On the same count and under the same terms, then “AAACTAGGTCAAAAGTCAAA (double strand) [PPRE G14A]”, with 2.41e+06 M⁻¹; and “AAACTAGGTCAAAGGTCACA (double strand) [PPRE A19C]”, with 1.22e+08 M⁻¹; and “AAACTCGGTCAAAGGTCAAA (double strand) [PPRE A6C]”, with 8.8e+06 M⁻¹.
The same measure, in the same setting: then “GAACTAGGTCAAAGGTCAAA (double strand) [PPRE A1G]”, with 1e+08 M⁻¹.
Still for that read-out and setting: with “AAACTAGGTCCAAGGTCAAA (double strand) [PPRE A11C]” the figure was 368000 M⁻¹; with “AAACTAGATCAAAGGTCAAA (double strand) [PPRE G8A]”, 4.91e+06 M⁻¹; with “AAACAAGGTCAAAGGTCAAA (double strand) [PPRE T5A]”, 7.87e+07 M⁻¹.
On to “AAACTAAGTCAAAGGTCAAA (double strand) [PPRE G7A]”, for which the Ka came out at 7.36e+06 M⁻¹.
Still for that read-out and setting: then “AAACTAGGTCAATGGTCAAA (double strand) [PPRE A13T]”, with 398000 M⁻¹; and “AAACTAGGTCAAAGATCAAA (double strand) [PPRE G15A]”, with 2.73e+06 M⁻¹.
The same measure, in the same setting: then “AAACTAGGACAAAGGTCAAA (double strand) [PPRE T9A]”, with 2.04e+06 M⁻¹; and “ACACTAGGTCAAAGGTCAAA (double strand) [PPRE A2C]”, with 4.33e+07 M⁻¹.
On the same count and under the same terms, then “AAACGAGGTCAAAGGTCAAA (double strand) [PPRE T5G]”, with 9.82e+07 M⁻¹; and “AAACTAGGTCATAGGTCAAA (double strand) [PPRE A12T]”, with 4.38e+07 M⁻¹.
With “AAACTATGTCAAAGGTCAAA (double strand) [PPRE G7T]”, the Ka amounted to 9.75e+06 M⁻¹.
On the same count and under the same terms, with “AAACTAGCTCAAAGGTCAAA (double strand) [PPRE G8C]” the figure was 980000 M⁻¹.
On to “AAACTAGGTCAAATGTCAAA (double strand) [PPRE G14T]”, for which the Ka turned out to be 5.14e+06 M⁻¹.
On to “CAACTAGGTCAAAGGTCAAA (double strand) [PPRE A1C]”, for which the Ka turned out to be 1.17e+08 M⁻¹.
Take “AAACTAGGTCAAAGGTAAAA (double strand) [PPRE C17A]”: the Ka worked out at 4.39e+06 M⁻¹.
“AAAGTAGGTCAAAGGTCAAA (double strand) [PPRE C4G]”: the Ka was determined as 1.38e+08 M⁻¹.
Still for that read-out and setting: with “AAACTAGGTCTAAGGTCAAA (double strand) [PPRE A11T]” the figure was 802000 M⁻¹.
For the sequence “AAACTAGGTCAAAGCTCAAA (double strand) [PPRE G15C]”, the Ka amounted to 218000 M⁻¹.
Regarding “AAACTAGGCCAAAGGTCAAA (double strand) [PPRE T9C]”, the Ka is 5.86e+06 M⁻¹.
On the same count and under the same terms, then “AAACTAGGTCAAACGTCAAA (double strand) [PPRE G14C]”, with 860000 M⁻¹.
On the same count and under the same terms, then “TAACTAGGTCAAAGGTCAAA (double strand) [PPRE A1T]”, with 1.01e+08 M⁻¹; and “AAGCTAGGTCAAAGGTCAAA (double strand) [PPRE A3G]”, with 5.27e+07 M⁻¹; and “AAACTAGGTCAAAGGTCAAG (double strand) [PPRE A20G]”, with 1e+09 M⁻¹.
“AAACTAGGTCAAAGGACAAA (double strand) [PPRE T16A]”: the Ka came out at 906000 M⁻¹.
For “AAACTAGGTCGAAGGTCAAA (double strand) [PPRE A11G]”, the Ka was determined as 5.54e+06 M⁻¹.
Still for that read-out and setting: with “AAACTAGGTCAAAGGGCAAA (double strand) [PPRE T16G]” the figure was 1.33e+07 M⁻¹; with “AAACTAGGTCAAAGGCCAAA (double strand) [PPRE T16C]”, 3.59e+06 M⁻¹; with “AAACTAGGTCAAAGTTCAAA (double strand) [PPRE G15T]”, 4.44e+07 M⁻¹.
Consider “AAACTAGGTCAAAGGTCAAT (double strand) [PPRE A20T]”, for which the Ka came to 2.79e+08 M⁻¹.
For the sequence “AAACTAGGTCAAAGGTCAAC (double strand) [PPRE A20C]”, the Ka came out at 9.97e+08 M⁻¹.
Still for that read-out and setting: then “AGACTAGGTCAAAGGTCAAA (double strand) [PPRE A2G]”, with 2.05e+08 M⁻¹; and “AAACTGGGTCAAAGGTCAAA (double strand) [PPRE A6G]”, with 1.73e+08 M⁻¹.
“AACCTAGGTCAAAGGTCAAA (double strand) [PPRE A3C]”: the Ka turned out to be 1.25e+08 M⁻¹.
As for “AAACTAGGGCAAAGGTCAAA (double strand) [PPRE T9G]”, the Ka stood at 9.19e+06 M⁻¹.
Same read-out and setting: with “AAACTAGGTCAAAGGTCATA (double strand) [PPRE A19T]” the figure was 3.78e+07 M⁻¹.
The same measure, in the same setting: then “AAACTAGGTCAACGGTCAAA (double strand) [PPRE A13C]”, with 1.05e+06 M⁻¹; and “AAACTAGGTCAAAGGTGAAA (double strand) [PPRE C17G]”, with 1.32e+07 M⁻¹; and “AAACTAGGTCAGAGGTCAAA (double strand) [PPRE A12G]”, with 2.69e+07 M⁻¹.
As for “AAACTAGGTCAAGGGTCAAA (double strand) [PPRE A13G]”, the Ka came out at 1.61e+07 M⁻¹.
Same read-out and setting: with “ATACTAGGTCAAAGGTCAAA (double strand) [PPRE A2T]” the figure was 1.45e+08 M⁻¹; with “AAACTAGGTAAAAGGTCAAA (double strand) [PPRE C10A]”, 3.42e+06 M⁻¹; with “AATCTAGGTCAAAGGTCAAA (double strand) [PPRE A3T]”, 1.98e+08 M⁻¹.
Same read-out and setting: then “AAACTAGGTCAAAGGTCAGA (double strand) [PPRE A19G]”, with 1.1e+07 M⁻¹.
As to “AAACTACGTCAAAGGTCAAA (double strand) [PPRE G7C]”, the Ka is 6.66e+06 M⁻¹.
Turning to “AAACTAGGTGAAAGGTCAAA (double strand) [PPRE C10G]”, the Ka worked out at 2.66e+07 M⁻¹.
Take “AAACTAGGTTAAAGGTCAAA (double strand) [PPRE C10T]”: the Ka amounted to 1.7e+07 M⁻¹.

The next series deals with T2, PPARγ (UniProt P37238).
T2 sequence: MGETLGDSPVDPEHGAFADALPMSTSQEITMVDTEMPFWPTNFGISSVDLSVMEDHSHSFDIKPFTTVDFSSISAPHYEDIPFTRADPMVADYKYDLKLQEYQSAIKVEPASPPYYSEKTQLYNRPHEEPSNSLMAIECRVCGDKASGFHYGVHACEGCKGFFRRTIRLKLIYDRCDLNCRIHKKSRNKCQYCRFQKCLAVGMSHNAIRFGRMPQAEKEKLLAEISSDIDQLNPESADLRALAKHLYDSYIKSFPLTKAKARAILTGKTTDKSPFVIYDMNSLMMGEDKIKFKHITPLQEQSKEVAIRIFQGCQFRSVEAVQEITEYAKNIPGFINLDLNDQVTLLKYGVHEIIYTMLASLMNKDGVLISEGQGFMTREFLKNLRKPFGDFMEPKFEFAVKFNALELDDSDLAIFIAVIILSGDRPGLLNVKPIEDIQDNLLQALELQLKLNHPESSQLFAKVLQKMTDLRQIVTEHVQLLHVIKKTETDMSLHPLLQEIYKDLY
Nature of the series: MITOMI. The following applies: On-chip MITOMI, 1 h equilibration; buffer, salt, pH and temperature not in the material (as ref. 23).
In the case of “AAACTAGGTCAAAGGTCAAA (double strand) [PPRE]”, the Ka is 2.08e+06 M⁻¹.

Values taken from publication PMC4858977.
